In PMC7145526, “The mRNA repressor TRIM71 cooperates with Nonsense-Mediated Decay factors to destabilize the mRNA of CDKN1A/p21”:

Biological target: T1, Flag-TRIM71-NHL (Homo sapiens, UniProt Q2Q1W2 585-868)
T1 sequence: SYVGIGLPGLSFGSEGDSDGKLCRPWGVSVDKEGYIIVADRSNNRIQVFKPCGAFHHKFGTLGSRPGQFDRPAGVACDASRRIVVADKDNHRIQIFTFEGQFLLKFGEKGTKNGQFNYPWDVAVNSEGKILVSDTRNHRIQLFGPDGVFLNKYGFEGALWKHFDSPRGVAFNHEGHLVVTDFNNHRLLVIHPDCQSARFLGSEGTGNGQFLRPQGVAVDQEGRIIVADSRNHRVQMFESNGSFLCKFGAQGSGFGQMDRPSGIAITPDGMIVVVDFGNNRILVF
Experiment: fluorescence polarization; 1x TBST, 30 min, RT; 100 nM 5'-Cy3 RNA, increasing protein concentrations; pH and salt not given
Conditions: protein: recombinant; tags: Flag; label: 5'-Cy3; hairpin (disruptive mutation)

GUCUUGUCAAGGC (structured_RNA) [TRE M#3 (SL M#3), loop position III G to C]
binding result: no binding
